Our source for the Kd values is publication PMC8751651 (ACS Omega, 2021).

This assay deals with Recombinant SARS-CoV-2 spike RBD protein (SARS-CoV-2, UniProt P0DTC2). In words: SPR. In general terms: In SPR one partner is held on a chip, and binding of the other changes the refractive index at the surface.

Where no end group is shown, it is not given here. The star is where a group is joined. Biotin = O=C1N[C@H]2[C@H](CS[C@H]2CCCCC(=O)*)N1; Cam = NC(=O)C*

The Kd is the free concentration of one partner at which half of the binding sites on the other are occupied at equilibrium, for simple one-to-one binding. For Biotin-SC(Cam)FDFLNWASCDGGGS [biotinylated peptide 6 (second synthesis)], the Kd was ~19 µM. Consider Biotin-SCFDFLNWASCDGGGS (cysteine pairing not given here) [biotinylated peptide 1 (second synthesis)], for which the equilibrium dissociation constant (Kd) was 5.8 µM.
